Laboratory results as given in patent US20230134580A1 (SHANGHAI HENLIUS BIOTECH, published 2023).
Numbering of substitutions follows the chain as printed.

T1: human TIGIT (T cell immunoreceptor with Ig and ITIM domains), expressed on cells (human, UniProt Q495A1 22-244)
T1 sequence: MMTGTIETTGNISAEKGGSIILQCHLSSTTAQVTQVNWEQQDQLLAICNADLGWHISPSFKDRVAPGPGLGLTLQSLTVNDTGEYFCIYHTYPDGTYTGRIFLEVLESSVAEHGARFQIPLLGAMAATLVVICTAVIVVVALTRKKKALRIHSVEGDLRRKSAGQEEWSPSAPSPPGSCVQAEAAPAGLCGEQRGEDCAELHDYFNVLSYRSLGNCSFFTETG

T2: recombinant human TIGIT extracellular domain (ECD) (human, UniProt Q495A1 22-138)
T2 construct: Bought protein (Arco Bio); also called h-TIGIT ECD; h-TIGIT
T2 sequence: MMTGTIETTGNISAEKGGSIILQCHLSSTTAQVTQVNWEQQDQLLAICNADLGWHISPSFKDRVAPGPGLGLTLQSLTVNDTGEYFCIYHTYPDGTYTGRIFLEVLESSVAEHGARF

B1: 2B7 bivalent VHH antibody (Fc fusion)
VHH: QVQLVESGGGLVQAGGSLRLACAASGRTFSSYPMGWFRQGPGKERESVAAISSDGRFTYYAASVKGRFTISKDNAKSAAFLQMNSLKPEDTAVYYCAARDSGSGYYSRAQWYDYWGQGTQVTVSS
notes: Bivalent VHH-CH2-CH3, ExpiCHO, Protein A purified
B2: 1G1-chimeric (1G1 bivalent VHH antibody) (Fc fusion)
chain: B1 VHH with G16D, A21S, A23V, R27P, T28S, Q120L
notes: Llama VHH of 1G1 with human IgG1 CH2 and CH3 domains; also called chimeric clone; not shown: human IgG1 CH2 and CH3 domains
B3: 1C12-chimeric (1C12 bivalent VHH antibody) (Fc fusion, not shown: small tags and cut ends)
chain: QVQLVESGGGLVQTGDSLRLSCAASSRIFSRYGMGWFRQAPGKEREFVAAISWNGASTTYTDSVKGRFTISRDSAENTTYLQINSLRPEDTAVYYCAADPWGAVKLGTAEYEYWGQGTQVTVSS
B4: 2B10 bivalent VHH antibody (Fc fusion)
VHH: QVKLEESGGGLVQTGDSLRLSCAASSRIFRRYAMGWFRQAPGKEREFVAAITWSGASTTYTDSVKGRFTISRDSAENTTYLQMTSLRPEDTAVYYCAADPWGSVIVGTAEYEYWGQGTLVTVSS
B5: 3F10 bivalent VHH antibody (Fc fusion)
VHH: QVQLVESGGGLVQAGGSLRLSCASSEHTFSNFPMGWFRQAPGKERNVVAAIDSSGRLTYYADSVKGRFTISKDNAKSTVYLQMNSLKSEDTARYYCAARTGGVGYYSRSSFYNYWGQGTLVTVSS
B6: 3G6 bivalent VHH antibody (Fc fusion)
VHH: QVQLVESGGGLVQAGGSLSLSCAASGSIFGISVMGWYRQAPGEQRDLVATLTRAGLTTYGDSVKGRFSISRDSAKNTVYLQMNNLKPEDTAVYYCHANIMESAASTFGRYWGQGTQVTVSS
B7: 3G7 bivalent VHH antibody (Fc fusion)
VHH: QVQLVESGGGLVQAGDSLRLSCEASGRTLSTYTMGWFRRAPGKEREFVGLAWPSPSTYVVDSVKGRFTISRDNAKNTIYLQMNSLKPEDTAIYYCAADYKSLTQSWLNAALDYWGQGTQVTVSS
notes: as for B1
B8: 1C12-EREF humanized bivalent antibody (Fc fusion)
VHH: B3 chain with L11V, T14P, D16R, S74N, A75S, E76K, T79L, I83M, P88A
B9: 1C12-EREW humanized bivalent antibody (Fc fusion)
VHH: B3 chain with L11V, T14P, D16R, F47W, S74N, A75S, E76K, T79L, I83M, P88A
B10: 1C12-GLEW humanized bivalent antibody (Fc fusion)
VHH: QVQLVESGGGVVQPGRSLRLSCAASSRIFSRYGMGWFRQAPGKGLEWVAAISWNGASTTYTDSVKGRFTISRDNSKNTLYLQMNSLRAEDTAVYYCAADPWGAVKLGTAEYEYWGQGTQVTVSS
B11: 1G1-F-G-ERES humanized bivalent antibody (Fc fusion)
VHH: QVQLVESGGGVVQPGRSLRLSCAASGPSFSSYPMGWFRQGPGKERESVAAISSDGRFTYYADSVKGRFTISRDNSKNTLYLQMNSLRAEDTAVYYCAARDSGSGYYSRAQWYDYWGQGTLVTVSS
notes: Humanized on germline IGHV-3-30*01
B12: 2B10 VHH (VHH)
VHH: B4 VHH
notes: Tested as VHH in SS320 culture supernatant
B13: 1C12 VHH (VHH)
VHH: B3 chain
notes: as for B12
B14: 15A5 VHH (VHH)
VHH: QVQLVESGGGLVQAGGSLRLSCAASERTFSSFAMGWFRQAPGKEREVVAAIDPSGRYIYYKDSVKGRFTMSRDNAKSTVYLQMNSLKPDDTARYYCAARIRGEGYYTRSSFYHYWGQGTQVTVSS
notes: as for B12
B15: 3F10 VHH (VHH)
VHH: B5 VHH
notes: as for B12
B16: 3G6 VHH (VHH)
VHH: B6 VHH
notes: as for B12
B17: 3G7 VHH (VHH)
VHH: B7 VHH
notes: as for B12
B18: 13H11 VHH (VHH)
VHH: B1 VHH with A21S, R27L, S31M, P33A
notes: as for B12
B19: 2B7 VHH (VHH)
VHH: B1 VHH
notes: as for B12
B20: 1G1 VHH (VHH)
VHH: B1 VHH with G16D, A21S, A23V, R27P, T28S, Q120L
notes: as for B12

Target: T1, human TIGIT (T cell immunoreceptor with …)
Test: cell-based or functional assay

| Binder | EC50 (read off the curve), NFAT luciferase reporter, TIGIT blockade [nM] |
| --- | --- |
| B1 | ~1 |
| B2 | ~1 |
| B3 | ~1 |

Target: T1, human TIGIT (T cell immunoreceptor with …)
Test: cell-based or functional assay
Remark: another data set of the same source

| Binder | EC50 (read off the curve), NFAT luciferase reporter, TIGIT blockade [nM] |
| --- | --- |
| B4 | ~0.7 |
| B5 | ~0.3 |
| B6 | ~3 |
| B7 | ~1 |

Target: T1, human TIGIT (T cell immunoreceptor with …)
Test: cell-based or functional assay
Remark: another data set of the same source

| Binder | EC50 (read off the curve), NFAT luciferase reporter, TIGIT blockade [nM] |
| --- | --- |
| B8 | ~2 |
| B9 | ~3 |
| B3 | ~0.7 |
| B10 | ~2 |

Target: T1, human TIGIT (T cell immunoreceptor with …)
Test: cell-based or functional assay
Remark: another data set of the same source

| Binder | EC50 (read off the curve), NFAT luciferase reporter, TIGIT blockade [nM] |
| --- | --- |
| B11 | 1 to 1.6 |
| B2 | ~0.7 |
| B3 | ~0.8 |

Target: T2, recombinant human TIGIT extracellular …
Test: blocking ELISA, VHH clone against PVR binding to h-TIGIT

| Binder | % inhibition of PVR binding to h-TIGIT [%] |
| --- | --- |
| B12 | > 90 |
| B13 | > 90 |
| B14 | > 90 |
| B15 | > 90 |
| B16 | > 90 |
| B17 | > 90 |
| B18 | > 90 |
| B19 | > 90 |
| B20 | > 90 |

Target: T1, human TIGIT (T cell immunoreceptor with …)
Test: flow cytometry, whole cell binding to Jurkat cells stably expressing human TIGIT; anti-human IgG Fc AlexaFluor488
Method: Y axis is values of Mean Fluorescence Intensity of AlexaFlour 488. X axis is values of antibody concentrations in nanomolar.
The binding affinities of the humanized bivalent antibodies to human TIGIT were determined by whole cell binding to h-TIGIT stably expressed on Jurkat cells. Briefly, antibodies were incubated with h-TIGIT transfected Jurkat cells (0.2×10⁶/well in 100 μl) for 30 min in FACS buffer. The cells were washed once, then incubated with anti-human IgG Fc AlexaFluor488 (1:500).

| Binder | EC50 (read off the curve) [nM] |
| --- | --- |
| B11 | ~0.2 |
| B2 | ~0.08 |

Target: T1, human TIGIT (T cell immunoreceptor with …)
Test: flow cytometry, whole cell binding to Jurkat cells stably expressing human TIGIT; Alexa Fluor 488 anti-human IgG Fc secondary antibody
Excerpt: FIGS. 1A-1C depict whole cell binding of representative VHH bivalent antibodies to human TIGIT determined by flowcytometry assays. […] Y axis represents Mean Fluorescence Intensity of AlexaFlour 488. X axis represents antibody concentrations in nanomolar. […] FIG. 1C is a schematic of the structure of a TIGIT VHH bivalent antibody.
Jurkat cells stably expressing human TIGIT and NFAT reporter gene were established. Specifically, Jurkat cells were transfected with human TIGIT expression vector by electroporation, and cells stably expressing human TIGIT were selected by 1 μg/ml puromycin during cell culture. Representative antibody clones were incubated at different concentrations with h-TIGIT stably expressing Jurkat cells (0.2×10^6/ml) in 100 μl/well in 96-well plate in FACS buffer (PBS with 1.5% FBS) for 30 min. After washing, Alexaflour 488 conjugated anti-human IgG Fc secondary antibody (Alexa Fluor® 488 AffiniPure Goat Anti-Human IgG, Fcγ fragment specific, Jackson labs, 1:500 dilution) was added and incubated for 30 min. After washing, mean fluorescence intensity was measured using CytoFlex (Beckman Coulter) by gating live cell population. Binding affinity was calculated using GraphPad Prism.

| Binder | EC50 (read off the curve) [nM] |
| --- | --- |
| B7 | ~0.3 |
| B1 | ~0.2 |
| B2 | ~0.1 |
